Experimental data published in IntAct's records for PubMed 23622247.

B1: Rho-related GTP-binding protein RhoE (Mus musculus), P61588 (parent)
chain: MKERRASQKLSSKSIMDPNQNVKCKIVVVGDSQCGKTALLHVFAKDCFPENYVPTVFENYTASFEIDTQRIELSLWDTSGSPYYDNVRPLSYPDSDAVLICFDISRPETLDSVLKKWKGEIQEFCPNTKMLLVGCKSDLRTDVSTLVELSNHRQTPVSYDQGANMAKQIGAATYIECSALQSENSVRDIFHVATLACVNKTNKNVKRNKSQRATKRISHMPSRPELSAVATDLRKDKAKSCTVM

Variants of: B1
Settings: with 1433b_human YWHAB

Variant | effect of a mutation on the interaction
S210A;T214A;S218A | disrupting interaction strength

Variants of: B1
Settings: with rhg05_human ARHGAP5, Q13017
Chain of rhg05_human ARHGAP5, Q13017 (Q13017 whole entry): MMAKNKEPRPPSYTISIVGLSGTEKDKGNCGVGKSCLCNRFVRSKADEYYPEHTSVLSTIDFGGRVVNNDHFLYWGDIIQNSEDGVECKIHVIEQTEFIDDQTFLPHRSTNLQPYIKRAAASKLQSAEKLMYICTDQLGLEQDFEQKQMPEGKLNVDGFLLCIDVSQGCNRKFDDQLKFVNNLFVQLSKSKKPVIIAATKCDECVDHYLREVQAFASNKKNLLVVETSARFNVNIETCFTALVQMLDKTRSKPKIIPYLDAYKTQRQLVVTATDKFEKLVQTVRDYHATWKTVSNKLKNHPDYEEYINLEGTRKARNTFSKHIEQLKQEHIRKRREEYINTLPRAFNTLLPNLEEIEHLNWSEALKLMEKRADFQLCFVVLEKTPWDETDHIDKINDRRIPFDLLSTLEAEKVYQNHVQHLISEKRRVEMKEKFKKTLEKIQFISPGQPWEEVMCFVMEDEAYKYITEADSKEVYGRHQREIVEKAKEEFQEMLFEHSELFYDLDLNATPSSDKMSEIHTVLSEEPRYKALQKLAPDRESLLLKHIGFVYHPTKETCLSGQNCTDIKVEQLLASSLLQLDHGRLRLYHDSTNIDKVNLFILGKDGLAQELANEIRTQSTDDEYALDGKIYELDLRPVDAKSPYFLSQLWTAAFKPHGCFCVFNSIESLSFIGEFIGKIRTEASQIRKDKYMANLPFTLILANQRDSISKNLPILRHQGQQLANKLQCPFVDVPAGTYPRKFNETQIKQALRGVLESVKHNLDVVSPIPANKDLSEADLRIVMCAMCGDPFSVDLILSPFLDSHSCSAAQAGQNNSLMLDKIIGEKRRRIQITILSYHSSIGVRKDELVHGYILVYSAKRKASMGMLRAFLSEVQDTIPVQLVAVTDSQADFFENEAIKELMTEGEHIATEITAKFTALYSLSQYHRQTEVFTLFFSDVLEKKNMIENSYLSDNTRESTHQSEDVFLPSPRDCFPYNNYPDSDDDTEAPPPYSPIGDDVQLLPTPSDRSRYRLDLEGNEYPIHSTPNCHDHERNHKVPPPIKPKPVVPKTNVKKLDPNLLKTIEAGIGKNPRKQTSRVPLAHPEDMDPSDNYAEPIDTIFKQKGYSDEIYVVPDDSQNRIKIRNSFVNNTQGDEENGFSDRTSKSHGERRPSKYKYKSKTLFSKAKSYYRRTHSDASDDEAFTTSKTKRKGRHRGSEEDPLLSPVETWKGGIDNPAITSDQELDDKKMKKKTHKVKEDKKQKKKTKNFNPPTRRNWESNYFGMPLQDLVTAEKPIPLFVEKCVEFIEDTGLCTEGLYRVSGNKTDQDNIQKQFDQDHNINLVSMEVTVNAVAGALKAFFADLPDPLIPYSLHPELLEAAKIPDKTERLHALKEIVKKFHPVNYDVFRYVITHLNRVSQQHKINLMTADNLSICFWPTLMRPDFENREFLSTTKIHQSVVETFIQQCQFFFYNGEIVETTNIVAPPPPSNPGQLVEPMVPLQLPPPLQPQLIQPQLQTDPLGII

Variant | effect of a mutation on the interaction
T55V | disrupting interaction strength

Variants of: B1
Settings: with 1433b_human YWHAB
Remark: another data set of the same source

Variant | effect of a mutation on the interaction
S7A;S11A;S210A;T214A;S218A;S222A;S240A | disrupting interaction strength
